The results in this text go back to patent US20150274820A1 (ESBATECH AN ALCON BIOMEDICAL RESEARCH UNIT, published 2015).

Substitutions are numbered along the chain they refer to. “And” between values parts separate entries of the source, which are not always exact repeats. Equal values may be shown once.

For assay [1], the target named is T1, recombinant human VEGF165 (human, UniProt P15692 27-191).
T1 construct: mature; Isoform VEGF165 of the entry; also called hVEGF165; hVEGF
The experiment in a line: Biacore SPR, VEGF immobilized, pH 5. In general terms: In SPR one partner is held on a chip, and binding of the other changes the refractive index at the surface.
Target sequence in this assay (P15692 other isoform, or with tags, fused parts or gaps): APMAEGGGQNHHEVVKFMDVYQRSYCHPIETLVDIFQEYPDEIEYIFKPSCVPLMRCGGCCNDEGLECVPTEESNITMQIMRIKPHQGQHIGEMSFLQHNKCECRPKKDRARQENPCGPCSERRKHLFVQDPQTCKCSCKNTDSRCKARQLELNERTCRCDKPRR

Assay [2] has as its target T1, recombinant human VEGF165. The assay is described as follows: Biacore SPR (FIG. 4c legend; differs from Table 10). As to the method:
For the surface plasmon resonance experiment, carboxymethylated dextran biosensor chips (CM4, GE Healthcare) were activated with N-ethyl-N′-(3-dimethylaminopropyl) carbodiimide hydrochloride and N-hydroxysuccinimide according to the supplier's instructions. Each of the 6 different VEGF forms, as exemplified above, was coupled to 1 of the 4 different flow cells on a CM4 sensor chip using a standard amine-coupling procedure. […] The 4th flow cell of each chip was treated similarly except no proteins were immobilized prior to blocking, and the flow cell was used as in-line reference. […] Dissociation of the anti-VEGF scFv from the VEGF on the CM4 chip was allowed to proceed for 10 min at 25° C. Sensorgrams were generated for each anti-VEGF scFv sample after in-line reference cell correction followed by buffer sample subtraction. The apparent dissociation rate constant (kd), the apparent association rate constant (kₐ) and the apparent dissociation equilibrium constant (KD) were calculated using one-to-one Langmuir binding model with BIAcore T100 evaluation Software version 1.1.
The present invention also discloses derivatives originating from the lead anti-VEGF scFv candidates, which are mentioned above.

For assay [3], the target named is recombinant murine VEGF164 (mouse) (UniProt Q00731). The assay is described as follows: cell-based or functional assay.
Assay [4] has as its target recombinant rat VEGF164 (rat) (UniProt P16612). The assay is described as follows: cell-based or functional assay.
In assay [5] the target is T1, recombinant human VEGF165. The assay is described as follows: cell-based or functional assay.
The target of assay [6] is recombinant murine VEGF164 (mouse) (UniProt Q00731). The assay is described as follows: Biacore SPR; ratio to hVEGF165.
In assay [7] the target is recombinant rat VEGF164 (rat) (UniProt P16612). The assay is described as follows: Biacore SPR; ratio to hVEGF165.
Assay [8] has as its target T1, recombinant human VEGF165. The experiment in a line: cell-based or functional assay. This is another data set of the same source.
Assay [9] addresses recombinant murine VEGF164 (mouse) (UniProt Q00731). The experiment in a line: Biacore SPR, VEGF immobilized, pH 5.
In assay [10] the target is recombinant rat VEGF164 (rat) (UniProt P16612). The assay is described as follows: Biacore SPR, VEGF immobilized, pH 5.
For assay [11], the target named is recombinant murine VEGF164 (mouse) (UniProt Q00731). The experiment in a line: Biacore SPR, pH 7.4 (data not shown).
For assay [12], the target named is recombinant rat VEGF164 (rat) (UniProt P16612). The assay is described as follows: Biacore SPR, pH 7.4 (data not shown).
Assay [13] deals with recombinant murine VEGF164 (mouse) (UniProt Q00731). The assay is described as follows: Biacore SPR, pH 5 (text; Table 8b prints 5.67E-10).
The target in assay [14] is T1, recombinant human VEGF165. The assay is described as follows: cell-based or functional assay. The source holds these as a separate data set.
Target sequence in this assay (P15692 other isoform, or with tags, fused parts or gaps): as above
For assay [15], the target named is T1, recombinant human VEGF165. The assay is described as follows: Biacore SPR, VEGF immobilized, pH 5. This is another data set of the same source.
Target sequence in this assay (P15692 other isoform, or with tags, fused parts or gaps): as above
The target in another assay is T2, recombinant human PLGF (human, UniProt P49763-2 19-149, limits assumed).
T2 construct: Negative control; also called PIGF
T2 sequence (looked up): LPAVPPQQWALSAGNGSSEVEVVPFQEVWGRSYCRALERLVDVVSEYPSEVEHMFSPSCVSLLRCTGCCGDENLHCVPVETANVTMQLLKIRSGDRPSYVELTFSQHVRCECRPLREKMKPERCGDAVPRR
The experiment in a line: Biacore SPR, PlGF immobilized, pH 5.

Assay [16] has as its target T1, recombinant human VEGF165. The assay is described as follows: Biacore SPR, VEGF immobilized, pH 5. This is another data set of the same source.
Target sequence in this assay (P15692 other isoform, or with tags, fused parts or gaps): as the sequence (P15692 other isoform, or with tags, fused parts or gaps) above
The target in assay [17] is T3, recombinant human VEGF121 (human, UniProt P15692 27-147).
T3 construct: mature; Isoform VEGF121 of the entry; also called hVEGF121
T3 sequence (looked up): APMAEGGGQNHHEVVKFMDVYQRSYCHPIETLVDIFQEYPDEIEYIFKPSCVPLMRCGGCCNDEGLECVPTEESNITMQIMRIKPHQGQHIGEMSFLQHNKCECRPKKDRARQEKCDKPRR
The experiment in a line: Biacore SPR, VEGF immobilized, pH 5.

Assay [18] deals with T4, recombinant human VEGF110 (human, UniProt P15692-4 27-136, limits assumed).
T4 construct: Made in house; also called hVEGF110
T4 sequence (looked up): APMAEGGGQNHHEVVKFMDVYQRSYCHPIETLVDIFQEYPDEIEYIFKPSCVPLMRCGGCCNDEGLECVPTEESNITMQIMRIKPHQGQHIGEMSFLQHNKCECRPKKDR
The experiment in a line: Biacore SPR, VEGF immobilized, pH 5.

Assay [19] deals with T1, recombinant human VEGF165. The assay is described as follows: Biacore SPR, VEGF immobilized, pH 7.4.
Target sequence in this assay (P15692 other isoform, or with tags, fused parts or gaps): as the sequence (P15692 other isoform, or with tags, fused parts or gaps) above
Assay [20] has as its target T3, recombinant human VEGF121. The experiment in a line: Biacore SPR (FIG. 3b legend; differs from Table 9). As to the method: In this example, the Biacore-binding ability of scFvs was tested and the binding affinity was measured using the exemplary surface plasmon resonance method with BIAcore™-T100. The VEGF proteins, tested for binding by these scFv candidates, in this example and later examples include purified Escherichia coli-expressed recombinant human VEGF₁₆₅ (PeproTech EC Ltd.), recombinant human VEGF₁₂₁ (PeproTech EC Ltd.), recombinant human VEGF₁₁₀ (ESBATech AG), recombinant murine VEGF₁₆₄ (PeproTech EC Ltd.), recombinant rat VEGF₁₆₄ (Biovision), recombinant rabbit VEGF₁₁₀ (ESBATech AG), and recombinant human PLGF (PeproTech EC Ltd.). For the surface plasmon resonance experiment, carboxymethylated dextran biosensor chips (CM4, GE Healthcare) were activated with N-ethyl-N′-(3-dimethylaminopropyl) carbodiimide hydrochloride and N-hydroxysuccinimide according to the supplier's instructions. Each of the 6 different VEGF forms, as exemplified above, was coupled to 1 of the 4 different flow cells on a CM4 sensor chip using a standard amine-coupling procedure. […] The apparent dissociation rate constant (kd), the apparent association rate constant (kₐ) and the apparent dissociation equilibrium constant (KD) were calculated using one-to-one Langmuir binding model with BIAcore T100 evaluation Software version 1.1.

For assay [21], the target named is T1, recombinant human VEGF165. The assay is described as follows: VEGFR2 competition ELISA: hVEGF165 coated on the plate, scFv pre-incubated with human VEGFR2/Fc chimera, bound VEGFR2/Fc detected with anti-human Fc-HRP, OD 450 nm; half-maximal inhibition. As to the method:
After 30-60 min of incubation at room temperature, the mixtures were transferred to the human VEGF₁₆₅ immobilized plate and incubated for 90 min. […] Optical density at 450 nm (OD 450 nm) was measured using a Sunrise microplate reader (Tecan).

B1: 578 wildtype C-His (scFv, not shown: small tags and cut ends)
scFv: DVVMTQTPSSVSAAVGDTVTINCQASEIIHSWLAWYQQKPGQPPKLLIYLASTLASGVPSRFKGSGSGTQFTLTISDLECADAAIYYCQNVYLASTNGANFGGGTEVVVKGGGGSGGGGSGGGGSGGGGSQSVEESGGRLVTPGTPLTLTCTASGFSLTDYYYMTWVRLAPGKGLEYIGFIDPDDDPYYATWAKGRFTISRTSTTVNLKMTSPTTEDTATYFCAGGDHNSGWGLDIWGPGTLVTVSL
notes: Rabbit wild type single chain
For orientation: Kd means a measure of binding affinity in units of concentration. Usually koff stands for a measure of how fast the partners let go of each other. Usually kon stands for the rate constant with which the complex forms. With B1, in assay [1], the Kd worked out at 0.2 nM, the koff stood at 0.000169 s⁻¹ and the kon turned out to be 834000 M⁻¹ s⁻¹. The kon in [2] was found to be 845000 M⁻¹ s⁻¹.

B2: 578minmax (scFv)
scFv: EIVMTQSPSTLSASVGDRVIITCQASEIIHSWLAWYQQKPGKAPKLLIYLASTLASGVPSRFSGSGSGAEFTLTISSLQPDDFATYYCQNVYLASTNGANFGQGTKLTVLGGGGGSGGGGSGGGGSGGGGSEVQLVESGGGLVQPGGSLRLSCTASGFSLTDYYYMTWVRQAPGKGLEWVGFIDPDDDPYYATWAKGRFTISRDTSKNTVYLQMNSLRAEDTAVYYCAGGDHNSGWGLDIWGQGTLVTVSS
notes: also called ESBA903; 903
For B2, the EC50, HUVEC proliferation induced by mouse VEGF164 in assay [3] was found to be 0.0631 nM. Also, the EC50, HUVEC proliferation induced by rat VEGF164 in [4] is 0.0697 nM. Moreover, in assay [5], the “EC50, HUVEC proliferation induced by hVEGF165” value came to 0.0552 nM and the “potency in HUVEC assay relative to Lucentis” value was around 1.6 fold. For the same molecule, in [6], the relative value KdhVEGF165/KdmVEGF164 was 1.1 and the relative value kdhVEGF165/kdmVEGF164 is 0.8. Further, in [7], the relative value KdhVEGF165/KdmVEGF164 (rat block) was found to be 0.8 and the relative value kdhVEGF165/kdmVEGF164 (rat block) was determined as 0.8. Moreover, the “Rel. activity in HUVEC assay (EC50Luc[nM]/EC50test[nM]) hVEGF” value in assay [8] is 1.6 and 1.4. In [9], the dissociation constant (Kd) was found to be 0.567 nM, the koff stood at 0.000657 s⁻¹ and the kon amounted to 1.14e+06 M⁻¹ s⁻¹. For the same molecule, in assay [10], the Kd is 0.748 nM, the koff is 0.000641 s⁻¹ and the kon was 858000 M⁻¹ s⁻¹. The Kd in [11] worked out at 0.0273 nM. In [12], the Kd was determined as 0.0219 nM. In addition, in assay [1], the Kd came to 0.625 nM, the koff worked out at 0.000504 s⁻¹ and the kon was 806000 M⁻¹ s⁻¹. In addition, in assay [13], the dissociation constant Kd came to 0.576 nM.

B3: 578-max (scFv)
scFv: B2 scFv with A69T, E70Q
notes: also called EP578max; #821
The term EC50 (read off the curve) denotes the concentration giving half of the maximal effect. Consider B3, for which the “EC50 in HUVEC assay (FIG. 8d)” value in [5] was determined as 0.103 nM. Besides, in assay [14], the “Rel. activity in HUVEC assay (EC50Luc[nM]/EC50test[nM])” value amounted to 1.48. For the same molecule, the “Rel. activity in HUVEC assay (EC50Luc[nM]/EC50test[nM]) hVEGF” value in [8] was 0.94 and 1 and 1.2. Moreover, the koff in [9] worked out at 0.00044 s⁻¹; in [10], 0.000528 s⁻¹; in assay [15], 0.000307 s⁻¹; in assay [16], 0.000307 s⁻¹; in [17] it was 0.000558 s⁻¹; in [18], 0.000722 s⁻¹. Further, the koff in assay [1] amounted to 0.000307 s⁻¹; in assay [19], 3.76e-05 s⁻¹. In addition, the kon in assay [9] amounted to 1.03e+06 M⁻¹ s⁻¹; in assay [10], 883000 M⁻¹ s⁻¹; in assay [15] it was 700000 M⁻¹ s⁻¹; in assay [16], 700000 M⁻¹ s⁻¹; in [17], 587000 M⁻¹ s⁻¹; in assay [18], 523000 M⁻¹ s⁻¹. Also, the values for the kon in [1] and in [19] were 700000 M⁻¹ s⁻¹ and 1.58e+06 M⁻¹ s⁻¹, respectively. The binding result with recombinant human PLGF is on record as “no binding”. The Kd in assay [20] amounted to 0.095 nM. The concentration giving a half-maximal response (EC50 (read off the curve)) in [21] is around 0.4 nM.
